Results on 30 molecules are retold here after patent publication US20030162225 (published 2003).

The data set concerns the target prion protein PrP alpha-form, full-length mature, oxidized (Bos taurus, UniProt P10279 P10279:25-241). Kind of data set: EMSA. The settings on record: tags: 6-octarepeat allele, Met-initiated, E. coli, untagged (Ni-NTA, SP-Sepharose, Superdex 75). For orientation: A gel shift assay detects complexes by their altered migration in electrophoresis.

prion protein PrP alpha-form, full-length mature, oxidized, sequence (P10279 25-241, one chain of several): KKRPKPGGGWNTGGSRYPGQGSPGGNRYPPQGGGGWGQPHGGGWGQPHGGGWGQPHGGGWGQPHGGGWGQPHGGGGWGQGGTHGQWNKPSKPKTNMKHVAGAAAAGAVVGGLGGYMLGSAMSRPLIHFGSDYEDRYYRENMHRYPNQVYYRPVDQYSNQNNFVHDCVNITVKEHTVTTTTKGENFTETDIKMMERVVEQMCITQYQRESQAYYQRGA

B1: Group I clone 8 (random region) (ssRNA)
RNA: GGGAGACAAGACUAGACGCUCAACUUUCGCUAGCGCACAUGCGCACCUCUAUGCGCAUAUACGAACGUUGGCGUUCGACAUGAGACUCACAACAGUUCCCUUUAGUGAGGGUUAAUU
modifications: 2'-F pyrimidines
On to B1, for which the binding result is listed as “binds”.

B2: orphan clone 3 (random region) (ssRNA)
RNA: GGGAGACAAGACUAGACGCUCAACUACGAACUCAUGACACAAGGAUGCAAUCUCAUCCCGCCAGCCCUUCGACAUGAGACUCACAACAGUUCCCUUUAGUGAGGGUUAAUU
modifications: 2'-F pyrimidines
For the molecule B2, the binding result is reported as “binds”.

B3: orphan clone 2 (random region) (ssRNA)
RNA: GGGAGACAAGACUAGACGCUCAACUCCUCUAGCACCAUAUCCAAGCUACAACUUCACAACGACUCGGCCUUCGACAUGAGACUCACAACAGUUCCCUUUAGUGAGGGUUAAUU
modifications: 2'-F pyrimidines
As to B3, the binding result is “binds”.

B4: orphan clone 6 (random region) (ssRNA)
RNA: GGGAGACAAGACUAGACGCUCAAGCUGACCACCGCCAACGCAACCUCCAAUGACUUGGAUCACCUAGACGAUUUCGACAUGAGACUCACAACAGUUCCCUUUAGUGAGGGUUAAUU
modifications: 2'-F pyrimidines
With B4, the binding result is “binds”.

B5: Group I clone 1 (random region) (ssRNA)
RNA: GGGAGACAAGACUAGACGCUCAACUUUCCUAGCGCACAUGCGCACCUCUAUGCGUAAUACGAACGUUGACGUUCGACAUGAGACUCACAACAGUUCCCUUUAGUGAGGGUUAAUU
modifications: 2'-F pyrimidines
For B5, the binding result is “binds”.

B6: Group I clone 19 (random region) (ssRNA)
RNA: GGGAGACAAGACUAGACGCUCAACUUUCCUAGCGCACAUGCGCACCUCUACGCGUAAUACGAACGUUGACGUUCGACAUGAGACUCACAACAGUUCCCUUUAGUGAGGGUUAAUU
modifications: 2'-F pyrimidines
B6: the binding result is recorded as “binds”.

B7: Group I clone 24 (random region) (ssRNA)
RNA: GGGAGACAAGACUAGACGCUCAACUUUCCUAGUGCAUAUGUGCACCUCUAUGCGUAAUACGAACGUUGGCGUUCGACAUGAGACUCACAACAGUUCCCUUUAGUGAGGGUUAAUU
modifications: 2'-F pyrimidines
Consider B7, for which the binding result is “binds”.

B8: Group I clone 14 (random region) (ssRNA)
RNA: GGGAGACAAGACUAGACGCUCAACUUUCCUAGCGCAUAUGCGCACCUCUAUGCGUAAUACGAACGUUGGCGUUCGACAUGAGACUCACAACAGUUCCCUUUAGUGAGGGUUAAUU
modifications: 2'-F pyrimidines
Regarding B8, the binding result is listed as “binds”.

B9: Group I clone 13 (random region) (ssRNA)
RNA: GGGAGACAAGACUAGACGCUCAACUCUCCUAGUGCACAUGCGCACCUCUAUGCGUAAUACGAACGUUGGCGUUCGACAUGAGACUCACAACAGUUCCCUUUAGUGAGGGUUAAUU
modifications: 2'-F pyrimidines
On to B9, for which the binding result is given as “binds”.

B10: Group I clone 12 (random region) (ssRNA)
RNA: GGGAGACAAGACUAGACGCUCAACUUUCCUAGCGCACAUGCGCACCUCUAUGCGUAAUACGAACGUCGGCGUUCGACAUGAGACUCACAACAGUUCCCUUUAGUGAGGGUUAAUU
modifications: 2'-F pyrimidines
Turning to B10, the binding result was “binds”.

B11: Group I clone 5 (random region) (ssRNA)
RNA: GGGAGACAAGACUAGACGCUCAACUUUCCUAACGCACACGCGCACCUCUAUGCGUAAUACGAACGUUGGCGUUCGACAUGAGACUCACAACAGUUCCCUUUAGUGAGGGUUAAUU
modifications: 2'-F pyrimidines
For the molecule B11, the binding result is listed as “binds”.

B12: Group I clone 18 (random region) (ssRNA)
RNA: GGGAGACAAGACUAGACGCUCAACUUUCCUAGCGCACAUGCGCACCUCUAUGCGUAAUACGAACGUAGACGUUCGACAUGAGACUCACAACAGUUCCCUUUAGUGAGGGUUAAUU
modifications: 2'-F pyrimidines
With B12, the binding result is “binds”.

B13: Group I clone 23 (random region) (ssRNA)
RNA: GGGAGACAAGACUAGACGCUCAACUUUCCUAACGCAUAUGCGCACCUCUAUGCGUAAUACGAACGUUGACGUUCGACAUGAGACUCACAACAGUUCCCUUUAGUGAGGGUUAAUU
modifications: 2'-F pyrimidines
Consider B13, for which the binding result is given as “binds”.

B14: Group I clone 11 (random region) (ssRNA)
RNA: GGGAGACAAGACUAGACGCUCAACUUUGCUAGCGCACAUGCGCACCUCUAUGCGUAGUACGAACGUUGGCGUUCGACAUGAGACUCACAACAGUUCCCUUUAGUGAGGGUUAAUU
modifications: 2'-F pyrimidines
B14: the binding result is listed as “binds”.

B15: Group I clone 17 (random region) (ssRNA)
RNA: GGGAGACAAGACUAGACGCUCAACUUUGCUAGCGCACAUGCUCACCUCUAUGCGUAAUACGAACGUUGACGUUCGACAUGAGACUCACAACAGUUCCCUUUAGUGAGGGUUAAUU
modifications: 2'-F pyrimidines
In the case of B15, the binding result was “binds”.

B16: Group I clone 26 (random region) (ssRNA)
RNA: GGGAGACAAGACUAGACGCUCAACUUUCCUAACGCAUAUGUGCACCUCUAUGCGUAAUACGAACGUUGACGUUCGACAUGAGACUCACAACAGUUCCCUUUAGUGAGGGUUAAUU
modifications: 2'-F pyrimidines
B16: the binding result is “binds”.

B17: Group I clone 4 (random region) (ssRNA)
RNA: GGGAGACAAGACUAGACGCUCAACUCUCCUAACGCACAUGCGCACCUCUAUGCGUAAUACGAACGUUGGCGUUCGACAUGAGACUCACAACAGUUCCCUUUAGUGAGGGUUAAUU
modifications: 2'-F pyrimidines
B17: the binding result is reported as “binds”.

B18: Group I clone 9 (random region) (ssRNA)
RNA: GGGAGACAAGACUAGACGCUCAACUUUCCUAGCGCACACGCGCACCUCUAUGCGUAAUACGAACGUUGGCGUUCGACAUGAGACUCACAACAGUUCCCUUUAGUGAGGGUUAAUU
modifications: 2'-F pyrimidines
As to B18, the binding result is reported as “binds”.

B19: Group I clone 10 (random region) (ssRNA)
RNA: GGGAGACAAGACUAGACGCUCAACUUCCCUAGCGCACAUGCGUACCUCUAUGCGUAAUACGAACGUUGGCGUUCGACAUGAGACUCACAACAGUUCCCUUUAGUGAGGGUUAAUU
modifications: 2'-F pyrimidines
For B19, the binding result is reported as “binds”.

B20: Group I clone 7 (random region) (ssRNA)
RNA: GGGAGACAAGACUAGACGCUCAACUUUCCUAGCGCACAUGCGCACCUCUAUGCGUAAUACGAACGUUGGCGUUCGACAUGAGACUCACAACAGUUCCCUUUAGUGAGGGUUAAUU
modifications: 2'-F pyrimidines
Turning to B20, the binding result is “binds”.

B21: Group I clone 3 (random region) (ssRNA)
RNA: GGGAGACAAGACUAGACGCUCAACGUUCCUAACGCACAUGCGCACCUCUAUGCGUAAUACGAACGUUGGCGUUCGACAUGAGACUCACAACAGUUCCCUUUAGUGAGGGUUAAUU
modifications: 2'-F pyrimidines
Consider B21, for which the binding result was “binds”.

B22: Group I clone 20 (random region) (ssRNA)
RNA: GGGAGACAAGACUAGACGCUCAACUUUCCUAGCGCACAUGCGCACUUCUAUGCGUAAUACGAACGUUGGCGUUCGACAUGAGACUCACAACAGUUCCCUUUAGUGAGGGUUAAUU
modifications: 2'-F pyrimidines
Regarding B22, the binding result is on record as “binds”.

B23: Group I clone 22 (random region) (ssRNA)
RNA: GGGAGACAAGACUAGACGCUCAACUUUCCUAAUGCACAUGCGCACCUCUAUGCGUAAUACGAACGUUGACGUUCGACAUGAGACUCACAACAGUUCCCUUUAGUGAGGGUUAAUU
modifications: 2'-F pyrimidines
On to B23, for which the binding result is recorded as “binds”.

B24: Group I clone 2 (random region) (ssRNA)
RNA: GGGAGACAAGACUAGACGCUCAACUUUCCUAACGCACAUGCGCACCUCUAUGCGUAAUACGAACGUUGGCGUUCGACAUGAGACUCACAACAGUUCCCUUUAGUGAGGGUUAAUU
modifications: 2'-F pyrimidines
Take B24: the binding result is “binds”.

B25: Group I clone 16 (random region) (ssRNA)
RNA: GGGAGACAAGACUAGACGCUCAACUUUCCUAGCGCAUAUGCGCACCUCUAUGCGUAAUACGAACGUCGGCGUUCGACAUGAGACUCACAACAGUUCCCUUUAGUGAGGGUUAAUU
modifications: 2'-F pyrimidines
For B25, the binding result is “binds”.

B26: Group I clone 27 (random region) (ssRNA)
RNA: GGGAGACAAGACUAGACGCUCAACUUUCCUAACGCACAUGCGCACCUCUAUGCGUAAUACGAACAGUGAGAUUCGACAUGAGACUCACAACAGUUCCCUUUAGUGAGGGUUAAUU
modifications: 2'-F pyrimidines
On to B26, for which the binding result is recorded as “binds”.

B27: Group I clone 15 (random region) (ssRNA)
RNA: GGGAGACAAGACUAGACGCUCAACUUUCCUAGCGCAUAUGCGCACCUAUAUGCGUAAUACGAACGUUGGCGUUCGACAUGAGACUCACAACAGUUCCCUUUAGUGAGGGUUAAUU
modifications: 2'-F pyrimidines
Take B27: the binding result is recorded as “binds”.

B28: Group I clone 6 (random region) (ssRNA)
RNA: GGGAGACAAGACUAGACGCUCAACUGUCCUAACGCACACGCGCACCUCUAUGCGUAAUACGAACGUUGGCGUUCGACAUGAGACUCACAACAGUUCCCUUUAGUGAGGGUUAAUU
modifications: 2'-F pyrimidines
Consider B28, for which the binding result was “binds”.

B29: orphan clone 5 (random region) (ssRNA)
RNA: GGGAGACAAGACUAGACGCUCAAUAUCAACAUUAGGGCUCCUUGGGGACCAGCGUCUCCUUGCAGCCCCGAUUCGACAUGAGACUCACAACAGUUCCCUUUAGUGAGGGUUAAUU
modifications: 2'-F pyrimidines
Consider B29, for which the binding result is “binds”.

B30: orphan clone 4 (random region) (ssRNA)
RNA: GGGAGACAAGACUAGACGCUCAACUACGUUCCUUAUCCUCCCUUCAGGAACCUGUACACCACAUUGCUUCGACAUGAGACUCACAACAGUUCCCUUUAGUGAGGGUUAAUU
modifications: 2'-F pyrimidines
B30: the binding result is “binds”.
